Test results from publication PMC6486627, “Structural basis for RNA translocation by DEAH-box ATPases” (Nucleic Acids Research, 2019).

What was measured:
ctPrp43 = biological target: T1, ctPrp43 (Thermochaetoides thermophila, UniProt G0RY84); assay: NADH-coupled ATPase assay (pyruvate kinase / lactate dehydrogenase), […] nm; type: biochemical; conditions: no RNA; no G-patch protein; 25 mM Bis-Tris propane pH 7.5, 150 mM KCl, 3 mM MgCl2, 25 °C; 5 uM enzyme; ATP 0-2 mM
T1 construct: gene CTHT_0005780; truncated, residues 61-764; GST fusion, tag cleaved by TEV; E. coli Rosetta 2 (DE3); no G-patch protein
T1 sequence (G0RY84 entry or part of it): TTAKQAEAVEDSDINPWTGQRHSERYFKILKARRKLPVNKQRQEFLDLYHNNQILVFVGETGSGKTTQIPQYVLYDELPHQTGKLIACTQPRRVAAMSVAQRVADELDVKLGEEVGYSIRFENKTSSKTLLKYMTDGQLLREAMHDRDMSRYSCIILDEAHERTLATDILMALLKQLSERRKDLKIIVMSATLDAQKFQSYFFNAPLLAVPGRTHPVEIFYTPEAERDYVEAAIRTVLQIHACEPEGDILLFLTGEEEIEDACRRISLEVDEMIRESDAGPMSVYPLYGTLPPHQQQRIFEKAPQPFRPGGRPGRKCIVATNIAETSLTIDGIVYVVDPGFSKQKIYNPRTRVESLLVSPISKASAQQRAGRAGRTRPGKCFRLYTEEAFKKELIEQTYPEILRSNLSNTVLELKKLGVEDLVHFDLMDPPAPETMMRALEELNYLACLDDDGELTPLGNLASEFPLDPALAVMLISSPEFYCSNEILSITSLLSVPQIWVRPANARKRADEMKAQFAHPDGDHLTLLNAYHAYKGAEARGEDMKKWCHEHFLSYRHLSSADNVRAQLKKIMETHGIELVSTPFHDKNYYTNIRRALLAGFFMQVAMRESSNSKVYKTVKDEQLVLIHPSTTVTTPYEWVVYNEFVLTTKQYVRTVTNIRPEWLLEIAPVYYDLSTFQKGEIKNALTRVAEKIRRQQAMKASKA

purified protein = substrate: Nc1ncnc2c1ncn2[C@@H]1O[C@H](COP(=O)(O)OP(=O)(O)OP(=O)(O)O)[C@@H](O)[C@H]1O; assay: purified protein; type: biochemical, Thermochaetoides thermophila; conditions: no RNA, 25 mM Bis-Tris propane pH 7.5, 150 mM KCl, 3 mM MgCl2, 25 °C, 0.4 uM enzyme, ATP 0-2 mM

| Km (ctPrp43) [µM] | Molecule | Km (purified protein) [µM] | kcat (purified protein) [s⁻¹] |
| --- | --- | --- | --- |
| 21.1 ± 3.88 | Nc1ncnc2c1ncn2[C@@H]1O[C@H](COP(=O)(O)OP(=O)(O)OP(=O)(O)O)[C@@H](O)[C@H]1O [ATP] | – | – |
| – | ctPrp22 (Thermochaetoides thermophila DSM 1495) (protein, N-terminally truncated, lacks first 545 residues (S1 motif omitted); GST fusion from pGEX-6p1, tag cleaved by TEV; E. coli Rosetta 2 (DE3)) TNMSIKEQRESLPVFQFRDQIIQAVKDNQILIVVGETGSGKTTQVTQYLAEAGFTKYGMIGCTQPRRVAAVSVAKRVAEEVGCQLGQEVGYTIRFEDVTSPATKIKYMTDGMLQREILMDPDLKRYSVIMLDEAHERTIATDVLFALLKKTVKRRPDLKVIVTSATLDAEKFSEYFNSCPIFTIPGRTFPVEILYSREPEPDYLEAALTTVMQIHLTEPPGDILVFLTGQEEIDTACEILYERMKALGPSVPELIILPIYSALPSEMQSRIFEPAPPGSRKVVIATNIAETSITIDYIYYVVDPGFVKQNAYDPKLGMDSLVVTPISQAQANQRAGRAGRTGPGKCFRLYTEAAYQSEMLPTTIPDIQRQNLANTILLLKAMGINDLLRFDFMDPPPVNTMLTALEELYALGALDDEGLLTRLGRKMADFPMEPSLSKVLIASVDKGCSDEMVTIVSMLNLQQIFYRPKDKQQQADQKKAKFHDPTGDHLTLLNVYNAWKNSGYSNAWCFENYIQARAMRRARDVRQQIVKIMERHRHPIISCGRDTDKIRQALCAGFFRNTARKDPQEGYKTLTEGTPVYLHPSSALFGKQAEWVLYHELVLTTKEYMHFTTAIEPKWLVEAAPTFFKLAPTDRLSKRKKAERIQPLYNKYEGEDGWRLSAQRRAARPGGGGGTWG | 34.53 ± 1.74 | 0.559 ± 0.00483 |
| – | ctPrp22 (Thermochaetoides thermophila DSM 1495; S837G) (protein, N-terminally truncated, lacks first 545 residues (S1 motif omitted); GST fusion from pGEX-6p1, tag cleaved by TEV; E. coli Rosetta 2 (DE3)) TNMSIKEQRESLPVFQFRDQIIQAVKDNQILIVVGETGSGKTTQVTQYLAEAGFTKYGMIGCTQPRRVAAVSVAKRVAEEVGCQLGQEVGYTIRFEDVTSPATKIKYMTDGMLQREILMDPDLKRYSVIMLDEAHERTIATDVLFALLKKTVKRRPDLKVIVTSATLDAEKFSEYFNSCPIFTIPGRTFPVEILYSREPEPDYLEAALTTVMQIHLTEPPGDILVFLTGQEEIDTACEILYERMKALGPSVPELIILPIYSALPSEMQSRIFEPAPPGSRKVVIATNIAETGITIDYIYYVVDPGFVKQNAYDPKLGMDSLVVTPISQAQANQRAGRAGRTGPGKCFRLYTEAAYQSEMLPTTIPDIQRQNLANTILLLKAMGINDLLRFDFMDPPPVNTMLTALEELYALGALDDEGLLTRLGRKMADFPMEPSLSKVLIASVDKGCSDEMVTIVSMLNLQQIFYRPKDKQQQADQKKAKFHDPTGDHLTLLNVYNAWKNSGYSNAWCFENYIQARAMRRARDVRQQIVKIMERHRHPIISCGRDTDKIRQALCAGFFRNTARKDPQEGYKTLTEGTPVYLHPSSALFGKQAEWVLYHELVLTTKEYMHFTTAIEPKWLVEAAPTFFKLAPTDRLSKRKKAERIQPLYNKYEGEDGWRLSAQRRAARPGGGGGTWG | 24.79 ± 0.93 | 0.9228 ± 0.00583 |
| – | ctPrp22 (Thermochaetoides thermophila DSM 1495; S837A) (protein, N-terminally truncated, lacks first 545 residues (S1 motif omitted); GST fusion from pGEX-6p1, tag cleaved by TEV; E. coli Rosetta 2 (DE3)) TNMSIKEQRESLPVFQFRDQIIQAVKDNQILIVVGETGSGKTTQVTQYLAEAGFTKYGMIGCTQPRRVAAVSVAKRVAEEVGCQLGQEVGYTIRFEDVTSPATKIKYMTDGMLQREILMDPDLKRYSVIMLDEAHERTIATDVLFALLKKTVKRRPDLKVIVTSATLDAEKFSEYFNSCPIFTIPGRTFPVEILYSREPEPDYLEAALTTVMQIHLTEPPGDILVFLTGQEEIDTACEILYERMKALGPSVPELIILPIYSALPSEMQSRIFEPAPPGSRKVVIATNIAETAITIDYIYYVVDPGFVKQNAYDPKLGMDSLVVTPISQAQANQRAGRAGRTGPGKCFRLYTEAAYQSEMLPTTIPDIQRQNLANTILLLKAMGINDLLRFDFMDPPPVNTMLTALEELYALGALDDEGLLTRLGRKMADFPMEPSLSKVLIASVDKGCSDEMVTIVSMLNLQQIFYRPKDKQQQADQKKAKFHDPTGDHLTLLNVYNAWKNSGYSNAWCFENYIQARAMRRARDVRQQIVKIMERHRHPIISCGRDTDKIRQALCAGFFRNTARKDPQEGYKTLTEGTPVYLHPSSALFGKQAEWVLYHELVLTTKEYMHFTTAIEPKWLVEAAPTFFKLAPTDRLSKRKKAERIQPLYNKYEGEDGWRLSAQRRAARPGGGGGTWG | 33.15 ± 2.24 | 0.8948 ± 0.0107 |
